Experimental data from the supplement of paper PMC10724198.
± gives the standard deviation of the averaged measurements.

System: Saccharomyces cerevisiae
Assay: protein stability index of tFT-peptide fusion (C-terminal peptide) (PSI (0-1 scale)); higher = more stable (slower turnover)
Conditions: genetic background: wild type; temperature: 30 C
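Also: PSI is a weighted mean of sequencing reads over stability bins, variants kept only with over 10 reads, mCherry proximal and sfGFP distal, peptide attached via GGGS linker.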

Row | Sequence | protein stability index
1 | PPPPSLLPLSLP | 0.608 ± 0.02
2 | RKTGTGETRTRR | 0.691 ± 0.015
3 | GLSWSSGGLMVF | 0.615 ± 0.037
4 | DVNSNYNVGEQR | 0.64 ± 0.012
5 | RLDVGAGGCLGG | 0.716 ± 0.021
6 | FRPLVDVKFPRY | 0.658 ± 0.13
7 | PPPPLPASHPSP | 0.707 ± 0.044
8 | AGMIRKGQYRGG | 0.68 ± 0.054
9 | RAWELPRLRGRD | 0.743 ± 0.076
10 | DIEKRNKRGVCV | 0.714 ± 0.058
11 | GWQLWGFCLSGP | 0.637 ± 0.032
12 | FLTSFVDLCGFY | 0.682 ± 0.0082
13 | QKKPEMLNKKSY | 0.639 ± 0.015
14 | PPPRPGLPAPVP | 0.683 ± 0.05
15 | KIKKTITKNTKR | 0.726 ± 0.0082
16 | SRCYKETGKVRE | 0.736 ± 0.0071
17 | PNVSPTPPYSSP | 0.691 ± 0.023
18 | VGGIVGGFCRGR | 0.701 ± 0.069
19 | SLLSRYFLLPLL | 0.545 ± 0.061
20 | RPLVSRLPIFIR | 0.506 ± 0.014
21 | LLPPCYFFLTSP | 0.637 ± 0.093
22 | LAPLYFSPFPFP | 0.689 ± 0.041
23 | KTNWKKKERKKA | 0.675 ± 0.027
24 | LMGDRRLFSFSV | 0.719 ± 0.12
25 | PPTHPPLPPPLL | 0.689 ± 0.07
26 | PRCSVYPITGPY | 0.682 ± 0.046

Row | Sequence | protein stability index
27 | RLGAEYNWVNLS | 0.6362 ± 0.0026
28 | LRARTPPPSHLP | 0.693 ± 0.02
29 | GILVALGSPLLV | 0.592 ± 0.048
30 | ADDDTGYPPTRT | 0.669 ± 0.061
31 | SRCPLLNGIGFR | 0.6471 ± 0.0025
32 | GVLRPVWVLGGS | 0.624 ± 0.017
33 | GDYITIGGGLIW | 0.759 ± 0.017
34 | VQGIKFRNSVEV | 0.665 ± 0.044
35 | GGGGGGGVAGGV | 0.715 ± 0.041
36 | VGGPRVLVRGVY | 0.6754 ± 0.0055
37 | GGRWMWWAGAAG | 0.79 ± 0.3
38 | RKCDKVGCDEKA | 0.66 ± 0.02
39 | PLPLSPLLLPPR | 0.6836 ± 0.0045
40 | TVMRPSVGHVDG | 0.68 ± 0.038
41 | LPSTHVPPEPLG | 0.679 ± 0.077
42 | AELAMGVSDMYS | 0.6782 ± 0.0013
43 | CVQGDGLSFYVL | 0.737 ± 0.07
44 | ILKQYLHRRFEF | 0.709 ± 0.057
45 | WSRRGGWEKYGV | 0.676 ± 0.032
46 | PPSFLLVCPRPP | 0.6897 ± 0.0068
47 | PPPTLPPPSPFP | 0.705 ± 0.038
48 | VGWHFPDGVVDC | 0.8 ± 0.12
49 | PPPAPRPPLSLP | 0.621 ± 0.017
50 | WYWGGWMRGCGW | 0.75 ± 0.048
51 | VQGEGVVAISMT | 0.712 ± 0.021
52 | PSPTIPSPPPPP | 0.615 ± 0.011

Row | Sequence | protein stability index
53 | AGAICWFRHILI | 0.67 ± 0.14
54 | GGWAGGRQGCGG | 0.77 ± 0.012
55 | TGRGVFCMSIHM | 0.643 ± 0.045
56 | VFSCPLLFASFS | 0.672 ± 0.041
57 | GRIFAGCGGGGV | 0.705 ± 0.06
58 | SYGWSQGPLSCW | 0.767 ± 0.01
59 | WARGGRVDDGGG | 0.62 ± 0.057
60 | VRRWCQFLGCCG | 0.682 ± 0.0081
61 | PALPPPAPLPLS | 0.67261 ± 0.00022
62 | CHPFGLPFMLEF | 0.721 ± 0.026
63 | EAHGQQESRCEQ | 0.7 ± 0.055
64 | SFPLSPPSLPSL | 0.781 ± 0.1
65 | RGGGGGGQVAVG | 0.711 ± 0.049
66 | CTGSRPPPDCAV | 0.646 ± 0.019
67 | RKEEKKEGKGTR | 0.663 ± 0.062
68 | FGVVLEGAGGGG | 0.702 ± 0.07
69 | YGKENGNRNTGR | 0.621 ± 0.014
70 | TFHTSSSPAHLP | 0.663 ± 0.038
71 | GPRAGFRRPELE | 0.733 ± 0.043
72 | PGPPADLAPPPP | 0.753 ± 0.018
73 | PSPPPLLTRPLP | 0.713 ± 0.1
74 | VFLRSGCSGWGE | 0.827 ± 0.094
75 | PPALPPTRPPVS | 0.696 ± 0.047
76 | LLPPPPLPPLPL | 0.796 ± 0.1
77 | PVLYPPPPFPPY | 0.747 ± 0.0095
78 | VSSVGILPFRFN | 0.72 ± 0.077

Row | Sequence | protein stability index
79 | YEMTGHVVTHEI | 0.69 ± 0.075
80 | LHSFLLSVGRGF | 0.681 ± 0.015
81 | SLCFSVFFPFFF | 0.5443 ± 0.0027
82 | LSPIPLPPPLTS | 0.699 ± 0.044
83 | ENQGQKKKKKKR | 0.733 ± 0.12
84 | SSSVFFFLRRFR | 0.698 ± 0.025
85 | PLSPLAPPPAPS | 0.661 ± 0.075
86 | VHDPLLPIFLIR | 0.684 ± 0.042
87 | AVVYIRVEVPGA | 0.498 ± 0.017
88 | TIRHKALTRKSR | 0.713 ± 0.012
89 | LKFCSTLLKFAS | 0.564 ± 0.037
90 | PRLSPPSSPGPP | 0.631 ± 0.03
91 | FCSMLPSHLPEA | 0.6972 ± 0.0027
92 | PPTRLPQGVSWR | 0.702 ± 0.066
93 | FESRDMVGWFGG | 0.674 ± 0.019
94 | PTFVQGVVLGRG | 0.702 ± 0.086
95 | RPPPPPPPPPSP | 0.723 ± 0.089
96 | GKKNNENKYDMR | 0.7304 ± 0.0051
97 | GSRCSEAQDRSD | 0.713 ± 0.015
98 | KIRRKIRIYKRK | 0.629 ± 0.1
99 | TEHRVGEKEPWH | 0.681 ± 0.018
100 | GGWGWGERRSRE | 0.658 ± 0.06
101 | APPRPCFSALTL | 0.726 ± 0.076
102 | SGGGELGATSGG | 0.691 ± 0.031
103 | QKKIKKPKSKKH | 0.736 ± 0.031
104 | WWRGSVWHREVA | 0.701 ± 0.0088

Row | Sequence | protein stability index
105 | KQFKFPLRVIRA | 0.519 ± 0.024
106 | GWCRVFLNFLMW | 0.61142 ± 0.00012
107 | PRAPRVSTRRPE | 0.793 ± 0.083
108 | FLISFCFVGLVL | 0.55 ± 0.014
109 | LGGCGWVDWWGL | 0.732 ± 0.0096
110 | RGPGAWFVSWWA | 0.7886 ± 0.0029
111 | VGGGGLGVEAWG | 0.613 ± 0.059
112 | RQTNEHNNQNER | 0.741 ± 0.082
113 | TGRRLVLGDRCM | 0.72 ± 0.011
114 | GGRGGEGLVREG | 0.667 ± 0.019
115 | NTKNPRPQDPQQ | 0.651 ± 0.013
116 | GTTLDEPGESGR | 0.621 ± 0.023
117 | SCNLYVGQVKSG | 0.649 ± 0.036
118 | GVPALLVGIDLV | 0.668 ± 0.027
119 | WATPRPCQMVPS | 0.567 ± 0.038
120 | PPTFFQRSPLRP | 0.681 ± 0.033
121 | VCCDRWWFAFWE | 0.7241 ± 0.0012
122 | PRVPLPPPHPLH | 0.728 ± 0.073
123 | EEMMEWKKREEK | 0.6596 ± 0.0009
124 | PPHPPYPPQPSL | 0.7021 ± 0.005
125 | LGALTPSIAGGP | 0.64 ± 0.01
126 | LGNFSLSARSYM | 0.727 ± 0.028
127 | AGHLLDVRLLVL | 0.487 ± 0.057
128 | PSIMLSSLPPPP | 0.696 ± 0.065
129 | PPPAPTQTALPP | 0.7028 ± 0.0057
130 | GRARWVGGEGVW | 0.706 ± 0.025

Row | Sequence | protein stability index
131 | LVAYSPRFLHSP | 0.669 ± 0.038
132 | LLLTLVFSFLSC | 0.531 ± 0.0088
133 | ILDNWQFSYIKD | 0.713 ± 0.051
134 | EGIDFVDQRLLS | 0.663 ± 0.005
135 | PSPLSLIPSSRP | 0.663 ± 0.095
136 | IRVLDVWRSGHL | 0.737 ± 0.0079
137 | PLTPPRLPRPFH | 0.7123 ± 0.0065
138 | SLRSPPPPPGIL | 0.756 ± 0.046
139 | RGRTLVVPAPDT | 0.673 ± 0.017
140 | PPSHGRSSQSPR | 0.731 ± 0.1
141 | RKLYMCMRTKGD | 0.673 ± 0.046
142 | KRGNEEYSRGNN | 0.692 ± 0.012
143 | WFQRGKIPIHKV | 0.667 ± 0.074
144 | RGPARFYVRVSV | 0.498 ± 0.0077
145 | PALPPPPLLSSS | 0.705 ± 0.012
146 | HPPSLPPLPPPL | 0.727 ± 0.054
147 | ALPPSFPRPFSF | 0.703 ± 0.036
148 | QSLITVETRIGS | 0.651 ± 0.045
149 | LLVTPAPRSTHF | 0.648 ± 0.064
150 | VCLGGWCMWGWR | 0.585 ± 0.017
151 | RMNSCVLLDGFA | 0.687 ± 0.03
152 | VAGKVWREAEPG | 0.656 ± 0.029
153 | GQLMRPSFSVSC | 0.658 ± 0.009
154 | AHDRLPSTRLVC | 0.581 ± 0.086
155 | ATGHQMTMYDNR | 0.708 ± 0.069
156 | KHTGFAGGMTWT | 0.707 ± 0.016

Row | Sequence | protein stability index
157 | FHSLTDSSPPGL | 0.649 ± 0.022
158 | PPPLPPICTRPI | 0.627 ± 0.099
159 | KSKKQYTKKTRK | 0.709 ± 0.0078
160 | GSSRMACYCKHS | 0.644 ± 0.051
161 | GGVECVRGTGGR | 0.659 ± 0.046
162 | ICAPSPSPAFTF | 0.689 ± 0.0086
163 | PPPPPPLLPPPA | 0.7302 ± 0.0037
164 | HRKVCARHNWEE | 0.673 ± 0.046
165 | PLVAGRVIVTLR | 0.554 ± 0.011
166 | PHPLPLPLPLSP | 0.7134 ± 0.0017
167 | PPPLSQSPPSRR | 0.612 ± 0.029
168 | ALSFISYPFPLL | 0.642 ± 0.1
169 | GGGGGGGCGGDR | 0.654 ± 0.08
170 | WSQGAIDRLDLS | 0.641 ± 0.13
171 | APSPPRAPLPPA | 0.689 ± 0.047
172 | RRCGETTEQTVR | 0.71 ± 0.059
173 | EIHKDSNTENIK | 0.663 ± 0.0031
174 | LTSSGLSFSAVL | 0.7249 ± 0.0027
175 | PPSRPLPALPFP | 0.676 ± 0.097
176 | THRNEKQGTVTY | 0.651 ± 0.016
177 | PPSSYGCGRQMP | 0.645 ± 0.038
178 | NLRFLFFSSSRF | 0.682 ± 0.017
179 | VRCLGAVEDCLS | 0.657 ± 0.013
180 | KYTSQRSPRIFR | 0.573 ± 0.2
181 | GGGAGRGSRVWG | 0.746 ± 0.076
182 | AEERTSETRYKN | 0.656 ± 0.0079

Row | Sequence | protein stability index
183 | CKKGVEIIEREK | 0.632 ± 0.026
184 | SVVLIQVVSKPT | 0.58 ± 0.015
185 | PPSPASASPDRR | 0.695 ± 0.022
186 | GGGGGMEPGCGP | 0.682 ± 0.043
187 | YCGGWWGGWEIG | 0.719 ± 0.0036
188 | VRQCSSGFRGAF | 0.674 ± 0.07
189 | PFPRPALPAYQS | 0.705 ± 0.018
190 | PRPPRPPRPPLP | 0.66 ± 0.016
191 | RGSIKSYNTRKT | 0.728 ± 0.009
192 | RKSERIKNKNGR | 0.715 ± 0.037
193 | PPLFPPPPPLPR | 0.718 ± 0.027
194 | CSDRCHNLLLDA | 0.705 ± 0.059
195 | PDPPTQPTRRSR | 0.686 ± 0.029
196 | HRPPPPPSPSHL | 0.686 ± 0.01
197 | PSSCSLLPLCLG | 0.663 ± 0.065
198 | LDLYRYLQDLGC | 0.731 ± 0.018
199 | RAVKLHIIIFDG | 0.551 ± 0.025
200 | FPCGARPFPLAF | 0.704 ± 0.049
201 | DAWPPVRTVVIN | 0.656 ± 0.071
202 | GFISVGVYPVVR | 0.677 ± 0.0081
